Data published in patent publication US20040076601A1, “Pharmaceutical form comprising a cell regulating factor and/or a cell proliferation promoter” (priority 2000, published 2004).

Experiments:
BP-A31 cells = assay: Stability of the biological activity of FGF-2 after storage at 4° C., MTT assay (Example 4); type: cell-based, mouse; conditions: MTT assay 24 h, FIG. 1
Procedure: The materials used are on the one hand the three pharmaceutical forms of Example 3, in which the support material consists of different proportions by weight of methylidene malonate oligomers and polymers, and on the other hand free (non-formulated) FGF-2. After storage of the 3 pharmaceutical forms and the free FGF-2 for 7, 14 and 21 days at 4° C., the stimulating activity on cell proliferation is measured by the MTT assay described in Example 2 for 24 h compared with a control culture with no growth factor added.
The results are shown graphically in FIG. 1, in which the storage time at 4° C., expressed in days, is plotted on the abscissa and the percentage proliferation is plotted on the ordinate.

BP-A31 fibroblasts = assay: MTT proliferation assay of form containing SPC (Example 7); type: cell-based, mouse; conditions: BP-A31 fibroblasts over 24 h vs untreated control; 3.1% added to the well, final theoretical SPC concentration 15 μM
Procedure: SPC was formulated in a support material containing 60% by weight of methylidene malonate oligomer and 40% by weight of methylidene malonate polymer prepared from 1-ethoxycarbonyl-1-ethoxycarbonylmethyleneoxycarbonylethene monomer (100 μg of SPC formulated per 40 mg of material, as described in Example 2). The pharmaceutical form according to the invention, containing SPC or its control solvent, was then brought into contact with BP-A31 fibroblasts according to the protocol described in Example 1. The effect of adding 3.1% to the well, generating a final theoretical SPC concentration of 15 μM, is shown here. The stimulation of cell proliferation was quantified by the MTT assay. The results, expressed as the percentage proliferation of the cells over 24 h compared with an untreated control culture, are reported in Table 6 below.

| Molecule | stability of biological activity on storage (BP-A31 cells) | Proliferation (%) (BP-A31 fibroblasts) |
| --- | --- | --- |
| free (non-formulated) FGF-2: free (non-formulated) basic fibroblast growth factor, human recombinant FGF-2 | rapidly losing its biological activity (after 7 days) |  |
| CCCCCCCCCCCCC/C=C/[C@@H](O)[C@@H](N)COP(=O)([O-])OCC[N+](C)(C)C [Free SPC, sphingosylphosphorylcholine] |  | 158.8 ± 3.2 |
